Data as given in ChEMBL document CHEMBL2074002, “Functional analysis of a canalicular multispecific organic anion transporter cloned from rat liver” (J Biol Chem, 1998).

Substrate: N[C@@H](CCC(=O)N[C@H](CSc1ccc([N+](=O)[O-])cc1[N+](=O)[O-])C(=O)NCC(=O)O)C(=O)O
Experiment: TP_TRANSPORTER: uptake in membrane vesicle from Mrp2-expressing NIH/3T3 cell
Assay type: functional, cell membranes, NIH3T3

B1: ATP-binding cassette sub-family C member 2 (Rattus norvegicus) (protein)
chain: MDKFCNSTFWDLSLLESPEADLPLCFEQTVLVWIPLGFLWLLAPWQLYSVYRSRTKRSSITKFYLAKQVFVVFLLILAAIDLSLALTEDTGQATVPPVRYTNPILYLCTWLLVLAVQHSRQWCVRKNSWFLSLFWILSVLCGVFQFQTLIRALLKDSKSNMAYSYLFFVSYGFQIVLLILTAFSGPSDSTQTPSVTASFLSSITFSWYDRTVLKGYKHPLTLEDVWDIDEGFKTRSVTSKFEAAMTKDLQKARQAFQRRLQKSQRKPEATLHGLNKKQSQSQDVLVLEEAKKKSEKTTKDYPKSWLIKSLFKTFHVVILKSFILKLIHDLLVFLNPQLLKLLIGFVKSSNSYVWFGYICAILMFAVTLIQSFCLQSYFQHCFVLGMCVRTTVMSSIYKKALTLSNLARKQYTIGETVNLMSVDSQKLMDATNYMQLVWSSVIQITLSIFFLWRELGPSILAGVGVMVLLIPVNGVLATKIRNIQVQNMKNKDKRLKIMNEILSGIKILKYFAWEPSFQEQVQGIRKKELKNLLRFGQLQSLLIFILQITPILVSVVTFSVYVLVDSANVLNAEKAFTSITLFNILRFPLSMLPMVTSSILQASVSVDRLERYLGGDDLDTSAIRRVSNFDKAVKFSEASFTWDPDLEATIQDVNLDIKPGQLVAVVGTVGSGKSSLVSAMLGEMENVHGHITIQGSTAYVPQQSWIQNGTIKDNILFGSEYNEKKYQQVLKACALLPDLEILPGGDMAEIGEKGINLSGGQKQRVSLARAAYQDADIYILDDPLSAVDAHVGKHIFNKVVGPNGLLAGKTRIFVTHGIHFLPQVDEIVVLGKGTILEKGSYRDLLDKKGVFARNWKTFMKHSGPEGEATVNNDSEAEDDDDGLIPTMEEIPEDAASLAMRRENSLRRTLSRSSRSSSRRGKSLKNSLKIKNVNVLKEKEKEVEGQKLIKKEFVETGKVKFSIYLKYLQAVGWWSILFIILFYGLNNVAFIGSNLWLSAWTSDSDNLNGTNNSSSHRDMRIGVFGALGLAQGICLLISTLWSIYACRNASKALHGQLLTNILRAPMRFFDTTPTGRIVNRFSGDISTVDDLLPQTLRSWMMCFFGIAGTLVMICMATPVFAIIIIPLSILYISVQVFYVATSRQLRRLDSVTKSPIYSHFSETVTGLPIIRAFEHQQRFLAWNEKQIDINQKCVFSWITSNRWLAIRLELVGNLVVFCSALLLVIYRKTLTGDVVGFVLSNALNITQTLNWLVRMTSEAETNIVAVERISEYINVENEAPWVTDKRPPADWPRHGEIQFNNYQVRYRPELDLVLKGITCNIKSGEKVGVVGRTGAGKSSLTNCLFRILESAGGQIIIDGIDVASIGLHDLRERLTIIPQDPILFSGSLRMNLDPFNKYSDEEVWRALELAHLRSFVSGLQLGLLSEVTEGGDNLSIGQRQLLCLGRAVLRKSKILVLDEATAAVDLETDSLIQTTIRKEFSQCTVITIAHRLHTIMDSDKIMVLDNGKIVEYGSPEELLSNRGSFYLMAKEAGIENVNHTEL
Q: With B1 as the protein, how does the Km read?
A: 0.175 µM
